Assay results taken from paper PMC2854692.

Target: Glucagon receptor (UniProt P47871)
UniProt P47871, sequence (P47871 26-477): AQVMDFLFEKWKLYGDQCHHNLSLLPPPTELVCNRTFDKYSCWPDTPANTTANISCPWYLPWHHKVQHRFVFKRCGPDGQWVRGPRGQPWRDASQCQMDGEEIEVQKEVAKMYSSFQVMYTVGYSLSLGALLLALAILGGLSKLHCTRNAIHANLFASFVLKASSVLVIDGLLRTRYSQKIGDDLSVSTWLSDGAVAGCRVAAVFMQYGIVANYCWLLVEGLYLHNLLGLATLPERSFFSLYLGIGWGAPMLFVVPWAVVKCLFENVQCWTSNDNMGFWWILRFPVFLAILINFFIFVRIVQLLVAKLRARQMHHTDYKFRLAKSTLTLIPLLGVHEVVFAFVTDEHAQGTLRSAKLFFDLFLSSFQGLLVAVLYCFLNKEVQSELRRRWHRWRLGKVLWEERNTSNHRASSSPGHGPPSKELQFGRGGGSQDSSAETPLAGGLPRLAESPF

B1: Gcg-XTEN (ligand)
chain: HSQGTFTSDYSKYLDSRRAQDFVQWLMNTGGTSTPESGSASPGTSPSGESSTAPGTSPSGESSTAPGSTSSTAESPGPGSTSESPSGTAPGSTSSTAESPGPGTSPSGESSTAPGTSTPESGSASPGSTSSTAESPGPGTSPSGESSTAPGTSPSGESSTAPGTSPSGESSTAPG
potency in the Ca2+-flux assay (FLIPR) on a transfected GcgR cell line, relative to unmodified glucagon, molar basis (% of the potency of unmodified glucagon): 15
